The results in this text go back to article PMC7511445 (Journal of immunology (Baltimore, Md. : 1950), 2020).

B1: phosphorylated full-length human IRF-3 S396A (natural protein, UniProt Q14653 1-427, looked up)
chain: MGTPKPRILPWLVSQLDLGQLEGVAWVNKSRTRFRIPWKHGLRQDAQQEDFGIFQAWAEATGAYVPGRDKPDLPTWKRNFRSALNRKEGLRLAEDRSKDPHDPHKIYEFVNSGVGDFSQPDTSPDTNGGGSTSDTQEDILDELLGNMVLAPLPDPGPPSLAVAPEPCPQPLRSPSLDNPTPFPNLGPSENPLKRLLVPGEEWEFEVTAFYRGRQVFQQTISCPEGLRLVGSEVGDRTLPGWPVTLPDPGMSLTDRGVMSYVRHVLSCLGGGLALWRAGQWLWAQRLGHCHTYWAVSEELLPNSGHGPDGEVPKDKEGGVFDLGPFIVDLITFTEGSGRSPRYALWFCVGESWPQDQPWTKRLVMVKVVPTCLRALVEMARVGGASSLENTVDLHIANSHPLSLTSDQYKAYLQDLVEGMDFQGPGES
modifications: phosphorylated in vitro by GST-mTBK1; the phosphorylated residues are not listed
B2: phosphorylated full-length human IRF-3 E388A (natural protein, UniProt Q14653 1-427, looked up)
chain: MGTPKPRILPWLVSQLDLGQLEGVAWVNKSRTRFRIPWKHGLRQDAQQEDFGIFQAWAEATGAYVPGRDKPDLPTWKRNFRSALNRKEGLRLAEDRSKDPHDPHKIYEFVNSGVGDFSQPDTSPDTNGGGSTSDTQEDILDELLGNMVLAPLPDPGPPSLAVAPEPCPQPLRSPSLDNPTPFPNLGPSENPLKRLLVPGEEWEFEVTAFYRGRQVFQQTISCPEGLRLVGSEVGDRTLPGWPVTLPDPGMSLTDRGVMSYVRHVLSCLGGGLALWRAGQWLWAQRLGHCHTYWAVSEELLPNSGHGPDGEVPKDKEGGVFDLGPFIVDLITFTEGSGRSPRYALWFCVGESWPQDQPWTKRLVMVKVVPTCLRALVEMARVGGASSLANTVDLHISNSHPLSLTSDQYKAYLQDLVEGMDFQGPGES
modifications: phosphorylated in vitro by GST-mTBK1; the phosphorylated residues are not listed
B3: phosphorylated full-length human IRF-3 H290A (natural protein, UniProt Q14653 1-427, looked up)
chain: MGTPKPRILPWLVSQLDLGQLEGVAWVNKSRTRFRIPWKHGLRQDAQQEDFGIFQAWAEATGAYVPGRDKPDLPTWKRNFRSALNRKEGLRLAEDRSKDPHDPHKIYEFVNSGVGDFSQPDTSPDTNGGGSTSDTQEDILDELLGNMVLAPLPDPGPPSLAVAPEPCPQPLRSPSLDNPTPFPNLGPSENPLKRLLVPGEEWEFEVTAFYRGRQVFQQTISCPEGLRLVGSEVGDRTLPGWPVTLPDPGMSLTDRGVMSYVRHVLSCLGGGLALWRAGQWLWAQRLGHCATYWAVSEELLPNSGHGPDGEVPKDKEGGVFDLGPFIVDLITFTEGSGRSPRYALWFCVGESWPQDQPWTKRLVMVKVVPTCLRALVEMARVGGASSLENTVDLHISNSHPLSLTSDQYKAYLQDLVEGMDFQGPGES
modifications: phosphorylated in vitro by GST-mTBK1; the phosphorylated residues are not listed
B4: phosphorylated full-length human IRF-3 S339A (natural protein, UniProt Q14653 1-427, looked up)
chain: MGTPKPRILPWLVSQLDLGQLEGVAWVNKSRTRFRIPWKHGLRQDAQQEDFGIFQAWAEATGAYVPGRDKPDLPTWKRNFRSALNRKEGLRLAEDRSKDPHDPHKIYEFVNSGVGDFSQPDTSPDTNGGGSTSDTQEDILDELLGNMVLAPLPDPGPPSLAVAPEPCPQPLRSPSLDNPTPFPNLGPSENPLKRLLVPGEEWEFEVTAFYRGRQVFQQTISCPEGLRLVGSEVGDRTLPGWPVTLPDPGMSLTDRGVMSYVRHVLSCLGGGLALWRAGQWLWAQRLGHCHTYWAVSEELLPNSGHGPDGEVPKDKEGGVFDLGPFIVDLITFTEGSGRAPRYALWFCVGESWPQDQPWTKRLVMVKVVPTCLRALVEMARVGGASSLENTVDLHISNSHPLSLTSDQYKAYLQDLVEGMDFQGPGES
modifications: phosphorylated in vitro by GST-mTBK1; the phosphorylated residues are not listed
B5: phosphorylated full-length human IRF-3 H288A (natural protein, UniProt Q14653 1-427, looked up)
chain: MGTPKPRILPWLVSQLDLGQLEGVAWVNKSRTRFRIPWKHGLRQDAQQEDFGIFQAWAEATGAYVPGRDKPDLPTWKRNFRSALNRKEGLRLAEDRSKDPHDPHKIYEFVNSGVGDFSQPDTSPDTNGGGSTSDTQEDILDELLGNMVLAPLPDPGPPSLAVAPEPCPQPLRSPSLDNPTPFPNLGPSENPLKRLLVPGEEWEFEVTAFYRGRQVFQQTISCPEGLRLVGSEVGDRTLPGWPVTLPDPGMSLTDRGVMSYVRHVLSCLGGGLALWRAGQWLWAQRLGACHTYWAVSEELLPNSGHGPDGEVPKDKEGGVFDLGPFIVDLITFTEGSGRSPRYALWFCVGESWPQDQPWTKRLVMVKVVPTCLRALVEMARVGGASSLENTVDLHISNSHPLSLTSDQYKAYLQDLVEGMDFQGPGES
modifications: phosphorylated in vitro by GST-mTBK1; the phosphorylated residues are not listed
B6: phosphorylated full-length human IRF-3 R285A (natural protein, UniProt Q14653 1-427, looked up)
chain: MGTPKPRILPWLVSQLDLGQLEGVAWVNKSRTRFRIPWKHGLRQDAQQEDFGIFQAWAEATGAYVPGRDKPDLPTWKRNFRSALNRKEGLRLAEDRSKDPHDPHKIYEFVNSGVGDFSQPDTSPDTNGGGSTSDTQEDILDELLGNMVLAPLPDPGPPSLAVAPEPCPQPLRSPSLDNPTPFPNLGPSENPLKRLLVPGEEWEFEVTAFYRGRQVFQQTISCPEGLRLVGSEVGDRTLPGWPVTLPDPGMSLTDRGVMSYVRHVLSCLGGGLALWRAGQWLWAQALGHCHTYWAVSEELLPNSGHGPDGEVPKDKEGGVFDLGPFIVDLITFTEGSGRSPRYALWFCVGESWPQDQPWTKRLVMVKVVPTCLRALVEMARVGGASSLENTVDLHISNSHPLSLTSDQYKAYLQDLVEGMDFQGPGES
modifications: phosphorylated in vitro by GST-mTBK1; the phosphorylated residues are not listed
B7: phosphorylated full-length human IRF-3 R285A/K313A (natural protein, UniProt Q14653 1-427, looked up)
chain: MGTPKPRILPWLVSQLDLGQLEGVAWVNKSRTRFRIPWKHGLRQDAQQEDFGIFQAWAEATGAYVPGRDKPDLPTWKRNFRSALNRKEGLRLAEDRSKDPHDPHKIYEFVNSGVGDFSQPDTSPDTNGGGSTSDTQEDILDELLGNMVLAPLPDPGPPSLAVAPEPCPQPLRSPSLDNPTPFPNLGPSENPLKRLLVPGEEWEFEVTAFYRGRQVFQQTISCPEGLRLVGSEVGDRTLPGWPVTLPDPGMSLTDRGVMSYVRHVLSCLGGGLALWRAGQWLWAQALGHCHTYWAVSEELLPNSGHGPDGEVPADKEGGVFDLGPFIVDLITFTEGSGRSPRYALWFCVGESWPQDQPWTKRLVMVKVVPTCLRALVEMARVGGASSLENTVDLHISNSHPLSLTSDQYKAYLQDLVEGMDFQGPGES
modifications: phosphorylated in vitro by GST-mTBK1; the phosphorylated residues are not listed
B8: phosphorylated full-length human IRF-3 K313A (natural protein, UniProt Q14653 1-427, looked up)
chain: MGTPKPRILPWLVSQLDLGQLEGVAWVNKSRTRFRIPWKHGLRQDAQQEDFGIFQAWAEATGAYVPGRDKPDLPTWKRNFRSALNRKEGLRLAEDRSKDPHDPHKIYEFVNSGVGDFSQPDTSPDTNGGGSTSDTQEDILDELLGNMVLAPLPDPGPPSLAVAPEPCPQPLRSPSLDNPTPFPNLGPSENPLKRLLVPGEEWEFEVTAFYRGRQVFQQTISCPEGLRLVGSEVGDRTLPGWPVTLPDPGMSLTDRGVMSYVRHVLSCLGGGLALWRAGQWLWAQRLGHCHTYWAVSEELLPNSGHGPDGEVPADKEGGVFDLGPFIVDLITFTEGSGRSPRYALWFCVGESWPQDQPWTKRLVMVKVVPTCLRALVEMARVGGASSLENTVDLHISNSHPLSLTSDQYKAYLQDLVEGMDFQGPGES
modifications: phosphorylated in vitro by GST-mTBK1; the phosphorylated residues are not listed
B9: phosphorylated full-length human IRF-3 H290A/K313A (natural protein, UniProt Q14653 1-427, looked up)
chain: MGTPKPRILPWLVSQLDLGQLEGVAWVNKSRTRFRIPWKHGLRQDAQQEDFGIFQAWAEATGAYVPGRDKPDLPTWKRNFRSALNRKEGLRLAEDRSKDPHDPHKIYEFVNSGVGDFSQPDTSPDTNGGGSTSDTQEDILDELLGNMVLAPLPDPGPPSLAVAPEPCPQPLRSPSLDNPTPFPNLGPSENPLKRLLVPGEEWEFEVTAFYRGRQVFQQTISCPEGLRLVGSEVGDRTLPGWPVTLPDPGMSLTDRGVMSYVRHVLSCLGGGLALWRAGQWLWAQRLGHCATYWAVSEELLPNSGHGPDGEVPADKEGGVFDLGPFIVDLITFTEGSGRSPRYALWFCVGESWPQDQPWTKRLVMVKVVPTCLRALVEMARVGGASSLENTVDLHISNSHPLSLTSDQYKAYLQDLVEGMDFQGPGES
modifications: phosphorylated in vitro by GST-mTBK1; the phosphorylated residues are not listed
B10: phosphorylated full-length human IRF-3 H288A/H290A/K313A (natural protein, UniProt Q14653 1-427, looked up)
chain: MGTPKPRILPWLVSQLDLGQLEGVAWVNKSRTRFRIPWKHGLRQDAQQEDFGIFQAWAEATGAYVPGRDKPDLPTWKRNFRSALNRKEGLRLAEDRSKDPHDPHKIYEFVNSGVGDFSQPDTSPDTNGGGSTSDTQEDILDELLGNMVLAPLPDPGPPSLAVAPEPCPQPLRSPSLDNPTPFPNLGPSENPLKRLLVPGEEWEFEVTAFYRGRQVFQQTISCPEGLRLVGSEVGDRTLPGWPVTLPDPGMSLTDRGVMSYVRHVLSCLGGGLALWRAGQWLWAQRLGACATYWAVSEELLPNSGHGPDGEVPADKEGGVFDLGPFIVDLITFTEGSGRSPRYALWFCVGESWPQDQPWTKRLVMVKVVPTCLRALVEMARVGGASSLENTVDLHISNSHPLSLTSDQYKAYLQDLVEGMDFQGPGES
modifications: phosphorylated in vitro by GST-mTBK1; the phosphorylated residues are not listed

One series concerns the molecule itself. The series can be described thus: native gel or EMSA.
B1: the binding result is given as “binds”.

The next series deals with the molecule itself. The series is described as follows: SEC. In general terms: Size exclusion chromatography separates by hydrodynamic size, large species first.
As for B2, the binding result was “binds”.

Regarding B3, the binding result was “binds”.

Take B4: the binding result is recorded as “binds”.

Take B5: the binding result is reported as “binds”.

With B6, the binding result was “binds”.

For the protein B7, the binding result was “binds”.

As for B8, the binding result is on record as “binds”.

For B9, the binding result is recorded as “binds”.

For B10, the binding result is given as “binds”.
